# Source: US20120184020A1, “ENGINEERED MICROORGANISMS WITH ENHANCED FERMENTATION ACTIVITY” (Verdezyne, Inc., priority 2009, published 2012)
# Values joined by “and” are separate entries in the source; they are usually repeats but may differ in a detail not shown here. Identical values can stand only once.
# B1: E. coli EDA protein: 2-keto-3-deoxygluconate-6-phosphate aldolase (eda) isolated from E. coli genomic DNA (protein, UniProt P0A955 1-213, looked up)
# KHG/KDPG aldolase: MKNWKTSAESILTTGPVVPVIVVKKLEHAVPMAKALVAGGVRVLEVTLRTECAVDAIRAIAKEVPEAIVGAGTVLNPQQLAEVTEAGAQFAISPGLTEPLLKAATEGTIPLIPGISTVSELMLGMDYGLKEFKFFPAEANGGVKALQAIAGPFSQVRFCPTGGISPANYRDYLALKSVLCIGGSWLVPADALEAGDYDRITKLAREAVEGAKL
# B2: PAO1 EDD protein: phosphogluconate dehydratase (edd) of Pseudomonas aeruginosa PAO1, SEQ ID NO: 70 (protein, listed as Pseudomonas aeruginosa)
# chain: MHPRVLEVTRRIQARSAATRQRYLEMVRAAASKGPHRGTLPCGNLAHGVAACGESDKQTLRLMNQANVAIVSAYNDMLSAHQPFERFPGLIKQALHEIGSVGQFAGGVPAMCDGVTQGEPGMELSLASRDVIAMSTAIALSHNMFDAALCLGVCDKIVPGLLIGSLRFGHLPTVFVPAGPMPTGISNKEKAAVRQLFAEGKATREELLASEMASYHAPGTCTFYGTANTNQLLVEVMGLHLPGASFVNPNTPLRDELTREAARQASRLTPENGNYVPMAEIVDEKAIVNSVVALLATGGSTNHTLHLLAIAQAAGIQLTWQDMSELSHVVPTLARIYPNGQADINHFQAAGGMSFLIRQLLDGGLLHEDVQTVAGPGLRRYTREPFLEDGRLVWREGPERSLDEAILRPLDKPFSAEGGLRLMEGNLGRGVMKVSAVAPEHQVVEAPVRIFHDQASLAAAFKAGELERDLVAVVRFQGPRANGMPELHKLTPFLGVLQDRGFKVALVTDGRMSGASGKVPAAIHVSPEAIAGGPLARLRDGDRVRVDGVNGELRVLVDDAEWQARSLEPAPQDGNLGCGRELFAFMRNAMSSAEEGACSFTESLNGWR
# B3: Ruminococcus xylose isomerase: native xylose isomerase from Ruminococcus flavefaciens strain 17, SEQ ID NO: 31 (protein, listed as Ruminococcus flavefaciens)
# chain: MEFFSNIGKIQYQGPKSTDPLSFKYYNPEEVINGKTMREHLKFALSWWHTMGGDGTDMFGCGTTDKTWGQSDPAARAKAKVDAAFEIMDKLSIDYYCFHDRDLSPEYGSLKATNDQLDIVTDYIKEKQGDKFKCLWGTAKCFDHPRFMHGAGTSPSADVFAFSAAQIKKALESTVKLGGNGYVFWGGREGYETLLNTNMGLELDNMARLMKMAVEYGRSIGFKGDFYIEPKPKEPTKHQYDFDTATVLGFLRKYGLDKDFKMNIEANHATLAQHTFQHELRVARDNGVFGSIDANQGDVLLGWDTDQFPTNIYDTTMCMYEVIKAGGFTNGGLNFDAKARRGSFTPEDIFYSYIAGMDAFALGFRAALKLIEDGRIDKFVADRYASWNTGIGADIIAGKADFASLEKYALEKGEVTASLSSGRQEMLESIVNNVLFSL
# How the values were obtained:
# [1] = Anti-His western blot of EDD and EDA variants expressed in S. cerevisiae (soluble/insoluble fractions); design: species or system Saccharomyces cerevisiae; settings: C-terminal HIS tag; total crude extract and solubilized extract
# Procedure: Transformation of the p426GPD plasmids containing an edd or an eda variant gene into yeast strain BY4742 was accomplished using the Zymo Research frozen-EZ yeast transformation II kit according to the manufacturer's protocol. The transformed BY4742 cells were selected by growth on a synthetic dextrose medium (SD) (0.67% yeast nitrogen base-2% dextrose) containing complete amino acids minus uracil (Krackeler Scientific Inc). Plates were incubated at about 30° C. for about 48 hours. Transformant colonies for each edd and eda variant were inoculated onto 5 ml of SD minus uracil medium and cells were grown at about 30° C. and shaken at about 250 rpm for about 24 hours. Cells were harvested by centrifugation at 1000×g for about 5 minutes, after which protein crude extract was prepared with Y-PER Plus (Thermo Scientific) according to the manufacturer's instructions. Whole cell extract protein concentrations were determined using the Coomassie Plus Protein Assay (Thermo Scientific) according to the manufacturer's directions. For each edd and eda variant His-tagged construct, about 10 μg of soluble and insoluble fractions were loaded on 4-12% NuPAGE Novex Bis-Tris protein gels (Invitrogen) and proteins were analyzed by western using anti-(His)6 (SEQ ID NO: 138) mouse monoclonal antibody (Abcam) and HRP-conjugated secondary antibody (Abcam). […]
# [2] = EDA activity assay: S. cerevisiae EDA extracts with saturating E. coli EDD extract (LDH coupled, NADH); type: biochemical
# Procedure: EDA genes isolated from a variety of sources were expressed in yeast and evaluated independently of EDA activity, to identify EDA activities suitable of inclusion in an engineered yeast strain. […] The activity of integrated EDAs in Thermosacc-Gold haploids, were also evaluated in this manner.
# EDD extractions (adapted from Chemyan et al, Protein Science 16:2368-2377, 2007): • 1) Pellet cells in 50 ml conical tubes, 4° C., 3,000 rpm, 10 mins, discard supernatant. • 2) Resuspend in 2 ml degassed PDGH buffer (20 mM MES pH 6.5, 30 mM NaCl, 5 mM MnCl2, 0.5 mM FeCl2, 10 mM 2-mercaptoethanol, 10 mM cysteine, sparged with nitrogen gas). Move to hungate tube. • 3) Add 0.1% Triton X-100, 10 ng/ml DNase, 10 μg/ml PMSF, 10 μg/ml TAME (Na-(p-toluene sulfonyl)-L-arginine methyl ester), 100 μg/ml lysozyme. • 4) Sparge hungate tube with nitrogen gas, cap and seal. Incubate 2 hours at 37° C., swirl occasionally. • 5) Clarify by centrifugation in 2-ml tube, 4° C., 10 mins, 14,000 rpm. Keep supernatant. • 6) Treat with 150 mM pyruvate and 10 mM sodium cyanoborohydride (work in hood) to inactivate aldolase activity. Incubate 30 mins at room temperature. • 7) During incubation, pre-equilibrate PD-10 column from GE • a. Remove top cap, pour off storage buffer. • b. Cut off bottom tip, fit in 50 ml conical with adapter. • c. Pour 5 ml of 20 mM MES buffer, pH 6.5 (total of 5 times). Discard flow-through. • 8) Run sample through column, then add MES buffer to a total of 2.5 ml volume added. Discard flow-through. • 9) Run 3.5 ml 20 mM MES pH 6.5 buffer to elute protein. Discard column in appropriate waste receptacle. • 10) Perform Bradford assay (1:10 or 1:20 dilution).
# • 1) Spin down in 50 ml conicals, 4° C., 3,400 rpm, 5 mins. […]
# Each reaction contains 50 mM Tris-HCl, pH 7, 10 mM MgCl2, 0.15 mM NADH, 15 μg LDH, saturating amounts of EDD determined empirically (usually −100 μg), 1-50 μg EDA (depending on level of activity), and 1 mM 6-phosphogluconate. Reactions are started by the addition of 6-phosphogluconate and monitored for 5 mins at 30° C.
# [3] = Industrial yeast strain BF903 evaluation: aerobic growth and xylose consumption in YP-xylose; type: cell-based, Saccharomyces cerevisiae; settings: commercial yeast strain BF903, YP-xylose with G418, aerobic, 30° C., 7 days
# Procedure: A commercially available industrial diploid strain of Saccharomyces cerevisiae (strain BF903; “Stillspirits” triple distilled yeast, Brewcraft, Albany, New Zealand; available at Hydrobrew, Oceanside, Calif.) was obtained and was made competent for transformation using known yeast cell transformation procedures. […] Transformed yeast containing each construct were grown overnight aerobically in a 15 ml culture tube on YPD media containing 2% glucose. After about 24 hours, about 25 ml of YP media containing 2% glucose and 100 μg/ml G418 was seeded with the cells at an initial OD600 of 0.5 in a 250 ml Erlenmeyer flask and grown aerobically at 30° C. The cultures were then passaged once every 7 days into fresh media, also at an initial OD600 of 0.5.
# Measurements were taken of the cell optical density (OD600) to assess cell density and plated onto YPD with 100 μg/ml G418 to ensure that the plasmid was stable. […] The strains were then grown overnight in YPD (with 100 μg/ml G418) and used to inoculate about 50 ml YP-xylose (with 100 μg/ml G418) into disposable 250 ml Erlenmeyer flasks with vented caps at an initial OD600 of about 1. The cultures were allowed to grow aerobically at 30° C. at 200 rpm for 7 days.
# [4] = In vivo evaluation of xylose isomerase constructs in C5 strain: xylose fermentation, aerobic then anaerobic; type: cell-based, Saccharomyces cerevisiae; settings: harvest at 372 hours
# From the text: The engineered strain was designed to include the following genetic modifications: the native Pho13 gene (alkaline phosphatase specific for p-nitrophenyl phosphate) was disrupted by inserting a construct containing the native TLK1 gene (Transketolase-1); the native aldose reductase gene (Gre3) was disrupted by inserting a construct containing the native high-affinity glucose transporter-7 gene (HXT7); the native glucose-repressible alcohol dehydrogenase II gene (adh2) was disrupted by inserting a construct containing the native xylulokinase gene (XYLK); and the native orotidine-5′ phosphate decarboxylase gene (ura3) was disrupted by inserting a construct containing the native transaldolase 1 gene […]. The resulting strain had the following genotype: pho13::TKL1, gre3::HXT7, adh2::XYLK, ura3::TAL1.
# The C5 strain was transformed using standard protocols with either p426GPD (as a control) or the chimeric variants XI-R, XI-Rp5, XI-Rp10, or XI-Rp15. The transformed cells were grown on SC-glucose minus uracil initially and then passaged onto SC-xylose minus uracil. Cultures of each of the above constructs were made in SC-xylose minus uracil—and grown for one week. The cultures were grown aerobically at 30° C. with 250 rpm agitation, 1 vvm sparge of process air, 21% O2. The pH was controlled at about 5.0 with 1N NaOH. […] At 24 hours elapsed fermentation time the fermentation was switched to anaerobic conditions. […] Oxygen was purged with 100% N2 sparge at 1 vvm until percent O2 was below 1%. Aeration was then set at 0.25 vvm 100% N2.
# The final sample also measured biomass by dry cell weight.
# [5] = system: engineered yeast (S. cerevisiae); experiment: Heterologous xylose isomerase expression in yeast (active yes/no); type: cell-based; settings: xylose isomerase of donor organism expressed in engineered yeast (S. cerevisiae)
# [6] = Industrial yeast strain: serum bottle (anaerobic) growth and ethanol production on xylose; type: cell-based, Saccharomyces cerevisiae; settings: sealed serum bottles, versus vector only control
# Procedure: The serum bottles were sealed with a butyl rubber stopper to prevent air exchange. As a result, the cultures became anaerobic once the available oxygen in the serum bottle was utilized. In general, anaerobiosis (e.g., the onset of anaerobic conditions) occurred a few hours after the culture was inoculated. Xylose utilization, ethanol production and cell growth were measured every twenty four hours.
# [7] = Xylose isomerase activity/kinetic assay on soluble whole cell extract (sorbitol dehydrogenase coupled, NADH, A340); type: biochemical; settings: xylose isomerase expressed in S. cerevisiae, total soluble crude extract; xylose concentrations between 40 and 500 nM (so in the source); Michaelis Mentin plots
# Procedure: […] Louis, Mo.), and about 2 U sorbitol dehydrogenase (Roche) at about 30° C. […] A Beckman DU-800 was utilized with an Enzyme Mechanism software package (Beckman Coulter, Inc.), and the change in the A340 was monitored for 2-3 minutes.
# […] Louis, Mo.), and 2 U Sorbitol Dehydrogenase (SDH) (Roche, Indianapolis, Ind.) at about 30° C. […] A Beckman DU-800 spectrophotometer was utilized with an Enzyme Mechanism software package (Beckman Coulter, Inc, Brea, Calif.), and the change in the A340 was monitored for 2-3 minutes.
# […] Louis, Mo.), and 2 U sorbitol dehydrogenase (SDH) (Roche, Indianapolis, Ind.) at about 30° C. […] A Beckman DU-800 spectrophotometer was utilized with an Enzyme Mechanism software package (Beckman Coulter, Inc, Brea, Calif.), and the change in the A340 was monitored for 2-3 minutes.
# Approximately 20 μg of soluble whole cell extract from each transformed cell line was prepared using Y-PER plus reagent as described above was incubated in a solution containing about 100 mM Tris, pH 7.5, 10 mM MgCl ? 2, 0.15 mM NADH (Sigma, St. Louis, Mo.), and 2 U Sorbitol Dehydrogenase (SDH) (Roche, Indianapolis, Ind.) at about 30° C. […] A Beckman DU-800 spectrophotometer was utilized with an Enzyme Mechanism software package (Beckman Coulter, Inc, Brea, Calif.), and the change in the A340 was monitored for 2-3 minutes.
Molecule,"expression and solubility in S. cerevisiae (western, FIGS. 13A and 13B) [1]","EDA activity relative to EDA from P. aeruginosa ([2]; E. coli EDA slope outside the linear range, underestimated)","EDA activity compared (in words) ([2]; EDAs expressed in S. cerevisiae, saturating E. coli EDD extract)",xylose consumption (FIG. 11) [3],Glucose [4] [g/L],Ethanol ([4]; listed as XI-R),Xylose ([4]; listed as XI-R),Active? (yes/no) [5],cell density (FIG. 12) ([6]; YP plus xylose),ethanol production (FIG. 12) ([6]; xylose as a carbon source),Specific Activity [7] [µmol/min/mg]
B1,expressed and soluble,approximately 16 fold,most active,–,–,–,–,–,–,–,–
B2,expressed and soluble,–,–,–,–,–,–,–,–,–,–
B3,–,–,–,more efficient at consuming xylose than the strain carrying the vector control only,0,15.65 g/L and 15.5 g/L,3.14 g/L and 3.85 g/L,Yes,higher cell density,more ethanol,0.9605
